A short description of assay [1]: high-throughput enzyme assay with crude bacterial extract. It is filed as biochemical. Conditions: relative to wild-type RdpA; for Average quizalofop-P activity: average of replicates. Here is the method:
The high-throughput bacterial protein expression was achieved by synthesizing a recombinant DNA molecule encoding each engineered protein and cloning this into a bacterial expression vector with a C-terminal histidine tag (His-tag) operably linked to the recombinant DNA molecule. The vectors were used to transform Escherichia coli (E. coli), and bacterial expression of the engineered proteins was induced. Overnight E. coli cultures were grown in 96-well plates and the cultures were centrifuged to pellet the bacteria. The bacterial pellets were lysed by adding 100 ul lysis master mix (10 ml of Bacteria Protein Extraction Reagent (B-PER®) II (Pierce Biotechnology, Rockford, IL; cat. no. 78260); 10 ul Lysozyme (10 ug/ml final; Lysozyme American Bioanalytical, Natick, MA; cat. no. AB011780-00005); and 40 ul Benzonase® Nuclease (100 Units/ml final, Novagen, Darmstadt, Germany; cat no 71206-3)) to each well. The plates were vortexed then incubated for 30 minutes at 4° C. 400 ul of MOPS buffer (pH 6.57) was added to cach well and the debris pelleted by centrifugation. The lysate supernatant was carefully removed and used as the crude bacterial extract for subsequent enzymatic analysis.
The high-throughput herbicide degradation enzyme assay was designed to assay the enzymatic activity of the engineered proteins towards various herbicides using crude bacterial extract. The engineered protein's oxygenase activity (that is, its enzymatic activity) was measured by an end point colorimetric assay utilizing detection of phenol products through measurement of absorbance at 510 nm from 4-aminoantipyrine and potassium ferricyanide. This assay was based on the assay described in Fukomori and Hausinger, Journal of Biological Chemistry (1993) 268(32):24311-24317. Enzyme reactions were assayed in 96-well plates in a total volume of 150ul that contained: 20 mM MOPS pH 6.75, 50-200 uM NH4FeSO4, 50-200 uM sodium ascorbate, 1 mM alpha-ketoglutarate (aKG), 10 ul of E. coli cell lysate containing expressed engineered protein, and substrate (either an AOPP herbicide or phenoxy acid herbicide). […] Absorbance measurements were made on a standard laboratory spectrometer. Assays were scaled as needed to enhance throughput. Standard curves were generated using purified protein or product standards.
Using this high-throughput bacterial protein expression and enzyme assay system, activities of approximately 1200 engineered proteins were measured relative to the activity of a selected wild-type protein, RdpA. In a 96 well plate assay, there were 3 controls (crude bacterial extract without an engineered protein) and 3 positive controls (crude bacterial extract with wild-type protein). The absorbance of the wells was measured and the protein activity was calculated using the following formula:
[formula] where, Activityi is the activity of the sample, Absorbancei is the absorbance of the sample, AbsorbanceWT is the absorbance of the wells containing extract from E. coli expressing the wild-type enzyme, and AbsorbancepET is the absorbance of the wells containing extract from E. coli without an engineered protein. Activity for each unique engineered protein was measured in duplicate and was reported as an average of the two measurements.
Using the information learned from the first assays, protein engineering was then done as described previously to produce additional engineered proteins, which were tested as described in this Example 1. The results of the high-throughput enzyme assay with quizalofop-P as the substrate for five of these additional engineered proteins are provided in Table 2.

The subject of assay [2] is transgenic maize plants. The experiment in a line: hybrid trait efficacy field trials (F1). Format: in vivo. To be noted: 2× quizalofop-P, six locations. How it is done: Inbred trait efficacy field trials were conducted to assess tolerance to the AOPP herbicides and sensitivity to the cyclohexanediones (CHD) herbicides in an inbred background. R2 inbred plants were generated by selfing a homozygous transgenic R1 plant and collecting seed. R2 inbred plants containing MON-HT55 with or without a CTP or MON-HT51 with a CTP and were evaluated at two field locations. Herbicide treatment was 2× quizalofop-P at 0.16 lb ai/acre applied PRE (after planting but before emergence) followed by quizalofop-P at 0.16 lb ai/acre applied at V4 growth stage followed by quizalofop-P at 0.16 lb ai/acre applied at V8 growth stage. Plots were rated for crop injury 7-10 days after herbicide application on a scale of 0-100 with zero being no injury and 100 being complete crop death. All data were subjected to analysis of variance and means separated at LSD (0.05). […] To test for sensitivity to CHD herbicides, which is desirable for use in volunteer control, plants were treated with a 1× rate of clethodim (0.25 lb ai/acre) at V8 growth stage. Volunteer control using a 1× rate of clethodim was 100% effective for all transgenic plants tested. Hybrid trait efficacy field trials were conducted to assess tolerance to the AOPP herbicides and sensitivity to the cyclohexanediones (CHD) herbicides in a hybrid background. F1 hybrid plants were produced by crossing an R1 inbred plant with a non-transgenic plant and collecting seed. The resulting F1 plants containing MON-HT55 (SEQ ID NO:13) with or without a CTP or MON-HT51 (SEQ ID NO: 3) without a CTP were evaluated at six field locations. The hybrid trait efficacy field trials were conducted at six locations under a range of environmental conditions, including high heat and drought conditions during the field season. This permitted the engineered protein to be evaluated in maize under high temperature and water stress conditions. Initial injury from 2× applications of quizalofop-P were higher than desired (>10% injury) at 7-10 days after application. Plants eventually grew out of most of the injury, with generally less injury from the V8 growth stage application as compared to the V4 growth stage application. Excessive injury was also noted when quizalofop-P was applied very early (for example, at VE-V2 growth stage).

B1: MON-HT51: engineered oxygenase protein, amino acid sequence SEQ ID NO:1 (protein)
chain: MHAALSPLSQRFERIAVQPLTGVLGAEITGVDLREPLSDSTWNEILDAFHTYQVIYFPGQAITNEQHIAFSRRFGPVDPVPLLKSIEGYPEVQMIRREANESGRVIGDDWHTDSSFLDAPPAAVVMRAIDVPEHGGDTGFLSMYTAYDALSDGLKKLISGLNVVHSATRVFGSLYQAQNRRFSNTSVKVMDVADGDRETVHPLVVTHPGSGRKGLYVNQVYCQRIEGMSEKESEPLLSFLFAHATKPEFTCRVRWKKDQVLVWDNLCTMHYAINDYHGQTRILHRTTVGGVRPAR
In the case of B1, in assay [1], the “Replicate 1 quizalofop-P activity” value is 117.02, the “Replicate 2 quizalofop-P activity” value is recorded as 124.87, the “Replicate 3 quizalofop-P activity” value is listed as 110.17 and the “Average quizalofop-P activity” value is reported as 117.35. In addition, in assay [2] (CTP Yes), the “% injury after V4 spray” value is listed as 51.8% and the “% injury after V8 spray” value amounted to 33.3%.

B2: MON-HT55: engineered oxygenase protein, amino acid sequence SEQ ID NO:11 (protein)
chain: MHAALSPLSQRFERIAVQPLTGVLGAEITGVDLREPLDDSTWNEILDAFHTYQVIYFPGQAITNEQHIAFSRRFGPVDPVPLLKSIEGYPEVQMIRREANESGRVIGENWHTDSTFLDAPPAAVVMYAKEIPPYGGDTLFTSMYTAWETLSPTMQATIEGLNVVHSATRVFGSLYQAQNRRFSNTSVKVMDVDAGDRETVHPLVVTHPETGRKGLYVNQVYCQRIEGMSEKESEPLLSFLFAHATKPEFTCRVRWQEGDVLVWDNLCTQHYAVPDYAGKFRYLTRTTVGGVRPAR
For the molecule B2, in assay [1], the “Replicate 1 quizalofop-P activity” value was 118.48, the “Replicate 2 quizalofop-P activity” value worked out at 99.79 and the “Average quizalofop-P activity” value came to 109.13. In assay [2] (CTP No), the “% injury after V4 spray” value is 46.8% and the “% injury after V8 spray” value worked out at 78.8%. In assay [2] (CTP Yes), the “% injury after V4 spray” value is 42.6-48.3% and the “% injury after V8 spray” value is recorded as 14.2-38.8%.

Values taken from patent US12723255B2, “Herbicide tolerance genes and methods of use thereof” (priority 2014, dated 2026).
